Measured values published in patent US8524454 (RESEARCH FOUNDATION OF STATE UNIVERSITY OF NEW YORK, dated 2013).

T1: transcobalamin receptor (TCblR) purified from human placenta (human, UniProt Q9NPF0 32-282)
T1 construct: also called TCR; purified TCblR
T1 sequence: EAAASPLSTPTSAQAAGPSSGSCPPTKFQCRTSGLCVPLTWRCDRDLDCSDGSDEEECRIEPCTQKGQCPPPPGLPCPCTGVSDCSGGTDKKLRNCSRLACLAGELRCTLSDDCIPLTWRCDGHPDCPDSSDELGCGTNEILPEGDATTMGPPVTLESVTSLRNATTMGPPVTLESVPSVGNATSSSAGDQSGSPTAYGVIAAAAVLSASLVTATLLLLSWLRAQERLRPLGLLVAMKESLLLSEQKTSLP

T2: recombinant extracellular fragment of TCblR produced in HEK 293 cells (human, UniProt Q9NPF0 32-247)
T2 construct: Highly glycosylated; also called EXC fragment of TCblR; recombinant TCblR extracellular domain
T2 sequence: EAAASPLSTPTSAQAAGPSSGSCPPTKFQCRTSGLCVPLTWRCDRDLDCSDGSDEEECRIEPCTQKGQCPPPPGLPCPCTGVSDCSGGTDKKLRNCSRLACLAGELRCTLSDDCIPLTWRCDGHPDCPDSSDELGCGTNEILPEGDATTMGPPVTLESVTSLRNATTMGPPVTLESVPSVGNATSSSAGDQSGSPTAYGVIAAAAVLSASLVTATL

B1: recombinant extracellular (EXC) domain of TCblR produced in NSO myeloma cells, cleaved from the Fc fusion protein (receptor)
chain: SPLSTPTSAQAAGPSSGSCPPTKFQCRTSGLCVPLTWRCDRDLDCSDGSDEEECRIEPCTQKGQCPPPPGLPCPCTGVSDCSGGTDKKLRNCSRLACLAGELRCTLSDDCIPLTWRCDGHPDCPDSSDELGCGTNEILPEGDATTMGPPVTLESVTSLRNATTMGPPVTLESVPSVGNATSSSAGDQSGSPTAY
notes: Fully glycosylated; also called EXC fragment; EXC-TCblR; not shown: some amino acids of the original Fc fusion protein remained in the cleaved fragment; they are not specified
B2: holo-transcobalamin (recombinant human TC saturated with cobalamin) (ligand, UniProt P20062 19-427, looked up)
chain: EMCEIPEMDSHLVEKLGQHLLPWMDRLSLEHLNPSIYVGLRLSSLQAGTKEDLYLHSLKLGYQQCLLGSAFSEDDGDCQGKPSMGQLALYLLALRANCEFVRGHKGDRLVSQLKWFLEDEKRAIGHDHKGHPHTSYYQYGLGILALCLHQKRVHDSVVDKLLYAVEPFHQGHHSVDTAAMAGLAFTCLKRSNFNPGRRQRITMAIRTVREEILKAQTPEGHFGNVYSTPLALQFLMTSPMRGAELGTACLKARVALLASLQDGAFQNALMISQLLPVLNHKTYIDLIFPDCLAPRVMLEPAAETIPQTQEIISVTLQVLSLLPPYRQSISVLAGSTVEDVLKKAHELGGFTYETQASLSGPYLTSVMGKAAGEREFWQLLRDPNTPLLQGIADYRPKDGETIELRLVSW
notes: also called TC-Cbl; holo TC

How the values were obtained:
[1] = molecular target: B2; assay: binding studies with the recombinant extracellular domain
[2] = molecular target: T1, transcobalamin receptor (TCblR) …; assay: radiolabeled Cbl-TC binding to purified TCblR competed by unlabeled holo-TC or apo-TC (FIG. 12)
[3] = molecular target: T2, recombinant extracellular fragment of …; assay: not described; extracellular fragment expressed in HEK 293 cells

| binding result [1] | fold difference in affinity (holo TC against apo TC) [2] | fold higher affinity (holo-TC against the apo protein) [3] | Binder |
| --- | --- | --- | --- |
| binds | – | – | B1 |
| – | 28 fold | 28 fold | B2 |
